# US20210070881A1 (DENALI THERAPEUTICS, published 2021)
# Biological target: T1, recombinant BACE1 (BACE1 extracellular domain, R&D Systems Cat#931-AS) (UniProt P56817 22-457)
# T1 construct: extracellular domain; also called BACE1 extracellular domain protein
# Assay: SPR Biacore 8K, antibody captured, BACE1 analyte
# Protocol: The binding affinities of the affinity matured humanized 2H8 variants for BACE1 were determined by surface plasmon resonance using a Biacore™ 8K instrument. […] The binding was monitored for 300 seconds and then dissociation was monitored for 600+ seconds in HBS-EP+ running buffer (GE Healthcare Life Sciences, BR100669). Binding response was corrected by subtracting the RU from a blank flow cell. A 1:1 Langmuir model of simultaneous fitting of kₒₙ and koff was used for kinetics analysis.
# T1 sequence (P56817 22-457): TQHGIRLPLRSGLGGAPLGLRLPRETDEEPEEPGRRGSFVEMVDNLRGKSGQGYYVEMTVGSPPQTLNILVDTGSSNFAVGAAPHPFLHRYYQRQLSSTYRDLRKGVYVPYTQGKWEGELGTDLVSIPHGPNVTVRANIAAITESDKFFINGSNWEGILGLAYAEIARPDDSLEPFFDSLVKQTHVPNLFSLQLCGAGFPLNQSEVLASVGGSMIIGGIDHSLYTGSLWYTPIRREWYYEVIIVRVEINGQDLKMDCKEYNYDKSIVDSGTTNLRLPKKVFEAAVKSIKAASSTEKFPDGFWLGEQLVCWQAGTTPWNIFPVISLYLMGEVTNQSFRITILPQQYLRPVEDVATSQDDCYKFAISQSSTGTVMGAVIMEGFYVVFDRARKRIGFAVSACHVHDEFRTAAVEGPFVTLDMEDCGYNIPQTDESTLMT
row,Kd,Binder
1,9.95 nM,"hu2H8v29.19 (antibody, V domains shown, captured via human Fc; also called hu2H8_LC5 + hu2H8_HC6.8) VH: QVQLVQSGAEVKKPGASVKVSCKASGYTFTNFWIHWVRQAPGQGLEWMGMIDPSGSYTKYNQKFKARATLTVDTSTSTVYMELSSLRSEDTAVYYCARSGVAFPYWGQGTLVTVSS VL: DIQMTQSPSSLSASVGDRVTITCKASQDVGRNVAWYQQKPGKSPKSLIYSASHRYSGVPSRFSGSGSGTDFTLTISSLQPEDFATYFCQQYNSYPYTFGQGTKVEIK"
2,7 nM,"hu2H8v29.23 (antibody, V domains shown, captured via human Fc; also called hu2H8_LC5 + hu2H8_HC6.12) VH: QVQLVQSGAEVKKPGASVKVSCKASGYTFTNFWIHWVRQAPGQGLEWMGMIDPSDSYTKYNQKFKARATLTVDTSTSTVYMELSSLRSEDTAVYYCARSGVSLPYWGQGTLVTVSS VL: DIQMTQSPSSLSASVGDRVTITCKASQDVGRNVAWYQQKPGKSPKSLIYSASHRYSGVPSRFSGSGSGTDFTLTISSLQPEDFATYFCQQYNSYPYTFGQGTKVEIK"
3,6.08 nM,"hu2H8v29.25 (antibody, V domains shown, captured via human Fc; also called hu2H8_LC5 + hu2H8_HC6.14) VH: QVQLVQSGAEVKKPGASVKVSCKASGYTFTNFWIHWVRQAPGQGLEWMGMIDPSDSYTKYNQKFKARATLTVDTSTSTVYMELSSLRSEDTAVYYCARSGAALPYWGQGTLVTVSS VL: DIQMTQSPSSLSASVGDRVTITCKASQDVGRNVAWYQQKPGKSPKSLIYSASHRYSGVPSRFSGSGSGTDFTLTISSLQPEDFATYFCQQYNSYPYTFGQGTKVEIK"
4,3.4 nM,"hu2H8v29.27 (antibody, V domains shown, captured via human Fc; also called hu2H8_LC5.12 + hu2H8_HC6.16) VH: QVQLVQSGAEVKKPGASVKVSCKASGYTFTNFWIHWVRQAPGQGLEWMGMIDPSSSYTKYNQKFKARATLTVDTSTSTVYMELSSLRSEDTAVYYCARSGASLPYWGQGTLVTVSS VL: DIQMTQSPSSLSASVGDRVTITCKASQDVGRNVAWYQQKPGKSPKSLIYSASHYYSGVPSRFSGSGSGTDFTLTISSLQPEDFATYFCQQYYSYPYTFGQGTKVEIK"
5,5.73 nM,"hu2H8v29.24 (antibody, V domains shown, captured via human Fc; also called hu2H8_LC5 + hu2H8_HC6.13) VH: QVQLVQSGAEVKKPGASVKVSCKASGYTFTNFWIHWVRQAPGQGLEWMGMIDPSDSYTKYNQKFKARATLTVDTSTSTVYMELSSLRSEDTAVYYCARSGASLPYWGQGTLVTVSS VL: DIQMTQSPSSLSASVGDRVTITCKASQDVGRNVAWYQQKPGKSPKSLIYSASHRYSGVPSRFSGSGSGTDFTLTISSLQPEDFATYFCQQYNSYPYTFGQGTKVEIK"
6,6.68 nM,"hu2H8v29.21 (antibody, V domains shown, captured via human Fc; also called hu2H8_LC5 + hu2H8_HC6.10) VH: QVQLVQSGAEVKKPGASVKVSCKASGYTFTNFWIHWVRQAPGQGLEWMGMIDPSDSYTKYNQKFKARATLTVDTSTSTVYMELSSLRSEDTAVYYCARSGVALPYWGQGTLVTVSS VL: DIQMTQSPSSLSASVGDRVTITCKASQDVGRNVAWYQQKPGKSPKSLIYSASHRYSGVPSRFSGSGSGTDFTLTISSLQPEDFATYFCQQYNSYPYTFGQGTKVEIK"
7,10.3 nM,"hu2H8v29.18 (antibody, V domains shown, captured via human Fc; also called hu2H8_LC5 + hu2H8_HC6.7) VH: QVQLVQSGAEVKKPGASVKVSCKASGYTFTNFWIHWVRQAPGQGLEWMGMIDPSESYTKYNQKFKARATLTVDTSTSTVYMELSSLRSEDTAVYYCARSGVAFPYWGQGTLVTVSS VL: DIQMTQSPSSLSASVGDRVTITCKASQDVGRNVAWYQQKPGKSPKSLIYSASHRYSGVPSRFSGSGSGTDFTLTISSLQPEDFATYFCQQYNSYPYTFGQGTKVEIK"
8,8.69 nM,"hu2H8v29.20 (antibody, V domains shown, captured via human Fc; also called hu2H8_LC5 + hu2H8_HC6.9) VH: QVQLVQSGAEVKKPGASVKVSCKASGYTFTNFWIHWVRQAPGQGLEWMGMIDPSDAYTKYNQKFKARATLTVDTSTSTVYMELSSLRSEDTAVYYCARSGVAFPYWGQGTLVTVSS VL: DIQMTQSPSSLSASVGDRVTITCKASQDVGRNVAWYQQKPGKSPKSLIYSASHRYSGVPSRFSGSGSGTDFTLTISSLQPEDFATYFCQQYNSYPYTFGQGTKVEIK"
9,19.2 nM,"hu2H8v29.15 (antibody, V domains shown, captured via human Fc; also called hu2H8_LC5 + hu2H8_HC6.4) VH: QVQLVQSGAEVKKPGASVKVSCKASGYTFTNFYIHWVRQAPGQGLEWMGMIDPSDSYTKYNQKFKARATLTVDTSTSTVYMELSSLRSEDTAVYYCARSGVAFPYWGQGTLVTVSS VL: DIQMTQSPSSLSASVGDRVTITCKASQDVGRNVAWYQQKPGKSPKSLIYSASHRYSGVPSRFSGSGSGTDFTLTISSLQPEDFATYFCQQYNSYPYTFGQGTKVEIK"
10,8.04 nM,"hu2H8v29.17 (antibody, V domains shown, captured via human Fc; also called hu2H8_LC5 + hu2H8_HC6.6) VH: QVQLVQSGAEVKKPGASVKVSCKASGYTFTNFWIHWVRQAPGQGLEWMGMIDPSSSYTKYNQKFKARATLTVDTSTSTVYMELSSLRSEDTAVYYCARSGVAFPYWGQGTLVTVSS VL: DIQMTQSPSSLSASVGDRVTITCKASQDVGRNVAWYQQKPGKSPKSLIYSASHRYSGVPSRFSGSGSGTDFTLTISSLQPEDFATYFCQQYNSYPYTFGQGTKVEIK"
